Entries after “also recorded” stand apart in the source; their conditions may differ.
Assays:
[1] = Observation of appearance with the naked eye (physical stability); type: physicochemical
From the text: Each buffer was also designed to have 4 salt concentrations.
If there was evident precipitation or turbidity, no further determination would be carried out. If the samples had no abnormal phenomena observable with the naked eye, the samples were taken and subjected to determination of absorption values at 360 nm and HPLC detection, wherein the former investigated the physical stability, and the latter investigated the chemical stability.
The solutions were mixed uniformly, filtered through a 0.22 μm filter membrane, dispensed into 2 mL Penicillin bottles, and placed at different temperatures for investigation. A series of sampling time points were arranged. After sampling, the samples were firstly observed with the naked eye for appearance.
The solutions were adjusted to pH 3.5-4.0, mixed uniformly, filtered through a 0.22 μm filter membrane, dispensed into 2 mL Penicillin bottles, and placed at different temperatures for investigation. A series of sampling time points were arranged. The samples were firstly observed with the naked eye for appearance. If no evident turbidity or gelatination was occurred, the sample was considered as qualified as for physical stability, and then subjected to HPLC detection to analyze the chemical stability.

[2] = HPLC analysis of GLP-1 on C18 column (chemical stability); type: physicochemical; conditions: 8 days
Description: An investigation method for chemical stability: a test sample was taken, and analyzed on a C18 column (3.5 μm, 300 Å, φ 4.6×50 mm). An analytical method: mobile phase A was 0.1% trifluoroacetic acid, B was the A phase with 80% acetonitrile added therein, the detection wavelength was 280 nm, 60% A and 40% B were balanced for 3 min, and the sample amount was 2 to 5 μL. Elution was performed with linear gradient for 8 min with 40% to 53% of the B phase and 60% to 47% of the A phase. Peak area was calculated using the normalization method. A standard sample was determined with the same method. The peptide concentration in the sample was calculated by comparison with the standard sample, and compared with the determination result at day 0, to calculate the retention of the peptide content in the sample. A higher retention of the peptide content indicated better chemical stability.
The HPLC detection method was performed according to Example 1.
The formulation method and HPLC detection method of the pharmaceutical compositions were performed according to Example 5.

Question: Which results are given for Glucagon-like peptide 1 [GLP-1]?
Answer: Situations of samples after preparation ([1]; 20 mmol/L Na2HPO4-NaH2PO4 pH 7.0, NaCl 0 mmol/L): Clear and transparent; Situations of samples after preparation ([1]; 20 mmol/L Na2HPO4-NaH2PO4 pH 7.0, NaCl 20 mmol/L): Clear and transparent; Situations of samples after preparation ([1]; 20 mmol/L Na2HPO4-NaH2PO4 pH 7.0, NaCl 150 mmol/L): Clear and transparent; Situations of samples after preparation ([1]; 20 mmol/L Na2HPO4-NaH2PO4 pH 7.0, NaCl 500 mmol/L): Clear and transparent; Situations of samples after preparation ([1]; 20 mmol/L Na2HPO4-NaH2PO4 pH 7.5, NaCl 0 mmol/L): Clear and transparent; Situations of samples after preparation ([1]; 20 mmol/L Na2HPO4-NaH2PO4 pH 7.5, NaCl 20 mmol/L): Clear and transparent; Situations of samples after preparation ([1]; 20 mmol/L Na2HPO4-NaH2PO4 pH 7.5, NaCl 150 mmol/L): Clear and transparent; Situations of samples after preparation ([1]; 20 mmol/L Na2HPO4-NaH2PO4 pH 7.5, NaCl 500 mmol/L): Clear and transparent; Situations of samples after preparation ([1]; 20 mmol/L NaAC-HAC pH 3.0, NaCl 0 mmol/L): Clear and transparent; Situations of samples after preparation ([1]; 20 mmol/L NaAC-HAC pH 3.0, NaCl 20 mmol/L): Clear and transparent; Situations of samples after preparation ([1]; 20 mmol/L NaAC-HAC pH 3.0, NaCl 150 mmol/L): Clear and transparent; Situations of samples after preparation ([1]; 20 mmol/L NaAC-HAC pH 3.0, NaCl 500 mmol/L): Clear and transparent; Situations of samples after preparation ([1]; 20 mmol/L NaAC-HAC pH 3.5, NaCl 0 mmol/L): Clear and transparent; Situations of samples after preparation ([1]; 20 mmol/L NaAC-HAC pH 3.5, NaCl 20 mmol/L): Clear and transparent; Situations of samples after preparation ([1]; 20 mmol/L NaAC-HAC pH 3.5, NaCl 150 mmol/L): Clear and transparent; Situations of samples after preparation ([1]; 20 mmol/L NaAC-HAC pH 3.5, NaCl 500 mmol/L): Turbid; Situations of samples after preparation ([1]; 20 mmol/L NaAC-HAC pH 4.0, NaCl 0 mmol/L): Clear and transparent; Situations of samples after preparation ([1]; 20 mmol/L NaAC-HAC pH 4.0, NaCl 20 mmol/L): Clear and transparent; Situations of samples after preparation ([1]; 20 mmol/L NaAC-HAC pH 4.0, NaCl 150 mmol/L): Clear and transparent; Situations of samples after preparation ([1]; 20 mmol/L NaAC-HAC pH 4.0, NaCl 500 mmol/L): Turbid; Situations of samples after preparation ([1]; 20 mmol/L NaAC-HAC pH 4.5, NaCl 0 mmol/L): Difficult to filter; Situations of samples after preparation ([1]; 20 mmol/L NaAC-HAC pH 4.5, NaCl 20 mmol/L): Difficult to filter; Situations of samples after preparation ([1]; 20 mmol/L NaAC-HAC pH 4.5, NaCl 150 mmol/L): Difficult to filter; Situations of samples after preparation ([1]; 20 mmol/L NaAC-HAC pH 4.5, NaCl 500 mmol/L): Difficult to filter,; also recorded: turbid; Situations of samples after preparation ([1]; 20 mmol/L NaAC-HAC pH 5.0, NaCl 0, 20, 150, 500 mmol/L): Turbid or precipitated; Situations of samples after preparation ([1]; 20 mmol/L citrate sodium-citric acid pH 5.5, NaCl 0, 20, 150, 500 mmol/L): Turbid or precipitated; Situations of samples after preparation ([1]; 20 mmol/L citrate sodium-citric acid pH 6.0, NaCl 0 mmol/L): Precipitate sticking; Situations of samples after preparation ([1]; 20 mmol/L citrate sodium-citric acid pH 6.0, NaCl 20 mmol/L): Precipitate sticking; Situations of samples after preparation ([1]; 20 mmol/L citrate sodium-citric acid pH 6.0, NaCl 150 mmol/L): Precipitate sticking; Situations of samples after preparation ([1]; 20 mmol/L citrate sodium-citric acid pH 6.0, NaCl 500 mmol/L): Precipitate sticking; Situations of samples after preparation ([1]; 20 mmol/L citrate sodium-citric acid pH 6.5, NaCl 0 mmol/L): Turbid; Situations of samples after preparation ([1]; 20 mmol/L citrate sodium-citric acid pH 6.5, NaCl 20 mmol/L): Turbid; Situations of samples after preparation ([1]; 20 mmol/L citrate sodium-citric acid pH 6.5, NaCl 150 mmol/L): Turbid; Situations of samples after preparation ([1]; 20 mmol/L citrate sodium-citric acid pH 6.5, NaCl 500 mmol/L): Turbid; Appearance of the sample ([1]; pH 3.0): no turbidity or precipitation; Appearance of the sample ([1]; pH 3.5 and pH 4.0, 0.5 M NaCl): turbidity; Appearance of the sample (no determination carried out) ([1]; pH 4.0, NaCl 29.22 mg/mL): Samples became turbid after formulation.; Appearance of the sample prepared ([1]; pH 4.5): clear and transparent; Appearance of the sample (no determination carried out) ([1]; pH 4.5, NaCl 29.22 mg/mL): Samples became turbid after formulation.; Appearance after formulation and heating treatment ([1]; pH 4.5, high salt concentration): turbidity; Appearance while the GLP-1 sample was prepared ([1]; pH 5.0 to 6.5): turbidity or precipitation; Appearance of the sample (no determination carried out) ([1]; pH 6.5, NaCl 0, 1.17, 8.77, 29.22 mg/mL): Turbidity was generated after formulation and; Appearance ([1]; pH value between about 4.5 and 6.5): turbidity or precipitation; Results of HPLC analysis, retention of the peptide content ([2]; pH 3.0, NaCl 0 mg/mL, 35° C.): 95.46%; Results of HPLC analysis, retention of the peptide content ([2]; pH 3.0, NaCl 0 mg/mL, 45° C.): 87.19%; Results of HPLC analysis, retention of the peptide content ([2]; pH 3.0, NaCl 1.17 mg/mL, 35° C.): 93.69%; Results of HPLC analysis, retention of the peptide content ([2]; pH 3.0, NaCl 1.17 mg/mL, 45° C.): 87.93%; Results of HPLC analysis, retention of the peptide content ([2]; pH 3.0, NaCl 8.77 mg/mL, 35° C.): 95.03%; Results of HPLC analysis, retention of the peptide content ([2]; pH 3.0, NaCl 8.77 mg/mL, 45° C.): 87.86%; Results of HPLC analysis, retention of the peptide content ([2]; pH 3.0, NaCl 29.22 mg/mL, 35° C.): 96.42%; Results of HPLC analysis, retention of the peptide content ([2]; pH 3.0, NaCl 29.22 mg/mL, 45° C.): 91.16%; Results of HPLC analysis, retention of the peptide content ([2]; pH 3.5, NaCl 0 mg/mL, 35° C.): 94.73%; Results of HPLC analysis, retention of the peptide content ([2]; pH 3.5, NaCl 0 mg/mL, 45° C.): 88.66%; Results of HPLC analysis, retention of the peptide content ([2]; pH 3.5, NaCl 1.17 mg/mL, 35° C.): 96.92%; Results of HPLC analysis, retention of the peptide content ([2]; pH 3.5, NaCl 1.17 mg/mL, 45° C.): 92.54%; Results of HPLC analysis, retention of the peptide content ([2]; pH 3.5, NaCl 8.77 mg/mL, 35° C.): 98.06%; Results of HPLC analysis, retention of the peptide content ([2]; pH 3.5, NaCl 8.77 mg/mL, 45° C.): 92.90%
